Results from US20220119507A1 (OHEALTH BIOPHARMACEUTICAL SUZHOU, published 2022).

Tests used:
[1] = molecular target: PTX3 recombinant protein (undenatured amino acid sequence listed as SEQ ID NO:14) (human, UniProt P26022 19-381); assay: ELISA, PTX3 (SEQ ID NO:14) coated at 10 ug/mL, antibody 0.01 to 1000 ng/mL (FIG. 2)
Description: Firstly, 10 μg/mL of PTX3 recombinant protein (representing a undenatured amino acid sequence listed as SEQ ID NO:14, dissolved in pH 7.2 PBS) was coated onto each well of a 96-well cell culture plate (Product No. 9018, Corning Costar), and reacted at 4° C. overnight. Next, the blocking solution (containing 3% BSA in PBS) was added into wells, and blocked for 1 hour under room temperature (i.e. 4° C. to 40° C.). After removing the blocking solution, each well was rinsed with PBS, and then reacted with a primary antibody for 1 hour under room temperature (i.e. 4° C. to 40° C.), in which the primary antibody was PTX3 mAb of EXAMPLE 1 serially diluted in a concentration range of 0.01 ng/mL to 1000 ng/mL. And then, each well was rinsed several times with PBST (i.e. PBS with Tween 20) for removing unconjugated PTX3 mAb, and reacted with secondary antibody under room temperature (i.e. 4° C. to 40° C.), in which the secondary antibody was anti-mouse IgG-HRP. Afterward, TMB was added into each well for reaction over a time period, and then added with 0.1 M of H₂SO₄ solution for 10 minutes to stop the reaction. Subsequently, the absorbance at 450 nm of each well was measured by commercially available ELISA reader, and the results were shown in FIG. 2. Each value was obtained in quadruplicate. […]

[2] = molecular target: T1, fragment of PTX3 recombinant protein listed as SEQ ID NO:4 (human); assay: ELISA on coated fragments SEQ ID NOs:1 to 10 (FIG. 4)
T1 peptide: ACIWVKATD

[3] = molecular target: T2, fragment of PTX3 recombinant protein listed as SEQ ID NO:3 (human); assay: as above
T2 peptide: SFSACIWVK

[4] = molecular target: T3, fragment of PTX3 recombinant protein listed as SEQ ID NO:5 (human); assay: as above
T3 peptide: WVKATDVLN

[5] = molecular target: T4, fragment of PTX3 recombinant protein listed as SEQ ID NO:8 (human); assay: hybridoma screening
T4 peptide: KTILFSYGT

[6] = molecular target: T5, fragment of PTX3 recombinant protein listed as SEQ ID NO:2 (human); assay: hybridoma screening
T5 peptide: RLESFSACI

[7] = molecular target: T6, fragment of PTX3 recombinant protein listed as SEQ ID NO:1 (human); assay: hybridoma screening
T6 peptide: RPMRLESFS

[8] = molecular target: T7, amino acid sequence listed as SEQ ID NO:11 (203th to 217th amino acid residues of PTX3 recombinant protein) (human); assay: hybridoma screening
T7 peptide: RLESFSACIWVKATD

[9] = molecular target: T8, fragment of PTX3 recombinant protein listed as SEQ ID NO:7 (human); assay: hybridoma screening
T8 peptide: VLNKTILFS

[10] = molecular target: T9, fragment of PTX3 recombinant protein listed as SEQ ID NO:10 (human); assay: hybridoma screening
T9 peptide: YGTKRNPYEI

[11] = molecular target: T10, fragment of PTX3 recombinant protein listed as SEQ ID NO:9 (human); assay: hybridoma screening
T10 peptide: LFSYGTKRN

[12] = molecular target: T11, RI37, fragment of PTX3 recombinant protein listed as SEQ ID NO:12 (200th to 236th amino acid residues) (human); assay: hybridoma screening
T11 peptide: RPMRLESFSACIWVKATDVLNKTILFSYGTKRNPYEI

[13] = molecular target: T12, fragment of PTX3 recombinant protein listed as SEQ ID NO:6 (human); assay: hybridoma screening
T12 peptide: ATDVLNKTI

Chain of PTX3 recombinant protein (undenatured amino acid sequence listed as SEQ ID NO:14) (P26022 19-381 limits assumed): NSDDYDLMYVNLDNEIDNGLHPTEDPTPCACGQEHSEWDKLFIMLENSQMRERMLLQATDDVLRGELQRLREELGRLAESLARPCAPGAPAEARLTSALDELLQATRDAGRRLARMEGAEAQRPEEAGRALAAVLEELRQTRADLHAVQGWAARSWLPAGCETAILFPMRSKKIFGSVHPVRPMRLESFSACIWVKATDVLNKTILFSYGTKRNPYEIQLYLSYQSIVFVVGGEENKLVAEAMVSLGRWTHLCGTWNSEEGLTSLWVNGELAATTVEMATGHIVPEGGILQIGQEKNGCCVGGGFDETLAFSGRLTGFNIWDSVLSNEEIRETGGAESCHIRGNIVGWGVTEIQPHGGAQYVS

B1: PTX3 monoclonal antibody of EXAMPLE 1 (antibody, V domains shown)
VH: EVQLQQSGAELVKPGASVKLSCTASDFNIKHTYLHWVLQRPEQGLEWIGRIDPANGDTKYDPKFQGKATITADTSSNTAYLHLSSLTSEDTAVYYCARVTTVVGFDYWGQGTTLTVSS
VL: QIVLTQSPAIMSTSLGERVTMTCTASSSVISTYLNWYQQKPGSSPKLWIYSTSNLASGVPARFSGSGSGTSYSLTISSMEAEDAATYFCHQFQRSPLTFGAGTKLELKR
notes: also called PTX3 mAb
[1]
  Kd: 0.085 nM
[2]
  binding result: binds
[3]
  binding result: binds
[4]
  binding result: binds
[5]
  binding result: binds
[6]
  binding result: binds
[7]
  binding result: binds
[8]
  binding result: binds
[9]
  binding result: binds
[10]
  binding result: binds
[11]
  binding result: binds
[12]
  binding result: binds
[13]
  binding result: binds
